Measured values from the supplement of paper PMC7125110.
± gives the standard error. Fewer inactive variants are shown than the library holds.

B1: glmS ribozyme (parent)
chain: AUAAAAGCGCCAGAACUACAGAAAUGUAGUUGACGAGGAGGAGGUUUAUCGAAUUUUCGGCGGAUGCCUCCAAA

Columns and labels:
Settings in all cases: with glucosamine-6-phosphate
glucosamine-6-phosphate [1] = variants of: B1; assay: self-cleavage kobs at 40 uM GlcN6P; higher = faster cleavage; RNA array
Procedure, shortened: (§1)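 E. coli RNA polymerase transcribed barcoded ribozyme variants in situ on sequenced MiSeq chips, which were tracked via a hybridised Cy3 probe at 37 °C. Tiles were imaged over ~14 h after glucosamine-6-phosphate (40 μM to 10 mM) in HEPES/KCl/Mg(OAc)2 buffer was flowed in. Normalised per-tile medians were fit to one- or two-exponential decays for kobs, and kcat and KM came from weighted Michaelis–Menten fits.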

glucosamine-6-phosphate [2] = variants of: B1; assay: self-cleavage kobs at 10000 uM GlcN6P; higher = faster cleavage; RNA array
Procedure, shortened: as §1

glucosamine-6-phosphate [3] = variants of: B1; assay: self-cleavage kobs at 640 uM GlcN6P; higher = faster cleavage; RNA array
Procedure, shortened: as §1

glucosamine-6-phosphate [4] = variants of: B1; assay: self-cleavage kobs at 2500 uM GlcN6P; higher = faster cleavage; RNA array
Procedure, shortened: as §1

glucosamine-6-phosphate [5] = variants of: B1; assay: self-cleavage kobs at 160 uM GlcN6P; higher = faster cleavage; RNA array
Procedure, shortened: as §1

Variant	self-cleavage kobs at 40 uM GlcN6P (glucosamine-6-phosphate [1])	self-cleavage kobs at 10000 uM GlcN6P (glucosamine-6-phosphate [2])	self-cleavage kobs at 640 uM GlcN6P (glucosamine-6-phosphate [3])	self-cleavage kobs at 2500 uM GlcN6P (glucosamine-6-phosphate [4])	self-cleavage kobs at 160 uM GlcN6P (glucosamine-6-phosphate [5])
AUAAACGCGCCAGAACUACAGAAAUGUAGUUAAUGAGGAGGAGGUUUAUCGAAGUUUUGGCGGAUACCUCCAAA	< 1e-05 s⁻¹	< 1e-05 s⁻¹			
AUAAAAGCGCAAGAACUACAGAAAUGUAGUUGACGAGGAGGAGGCUUGUCGAAUUUUCGGCGGAUGCCUCCAAA	< 1e-05 s⁻¹	< 1e-05 s⁻¹	< 1e-05 s⁻¹	< 1e-05 s⁻¹	
AUAAAAGCGCCAGAACUACAGAAAUGUAGUUGACGAGGAGGACGUAUAUCGAAUUUUCGGCGGAUGCCUCCAAA	< 1e-05 s⁻¹	< 1e-05 s⁻¹		< 1e-05 s⁻¹	
AUAAAAGCGCCAGAACUACAGAAAUGUAGUUGGCGAGGGGGAGGUUUAUCGAAUUUUCGUCGGAUGCCUCCAAA	< 1e-05 s⁻¹	< 1e-05 s⁻¹		< 1e-05 s⁻¹	
AUAAAAGCACCAGAACUACAGAAAUGUAGUUGACGAGGAGGAGGUUUAUCGAAUUUUCGGCAGAUGCCUCCAAA	< 1e-05 s⁻¹		< 1e-05 s⁻¹		< 1e-05 s⁻¹
AUAAAAGCGCCAGAACUACAGAAAUGUAGUUGACGAGGAGGUGGUCUAUCCAAUUUUCGGAGGAUGCCUCCAAA	< 1e-05 s⁻¹				
AUAAACGCGCCAGAACUACAGAAAUGUAGUCGACGAGGAGGAGGUUUAUCGAAUUUUCUGCGGAUGCCUCCAAA	< 1e-05 s⁻¹				
AUAAAGGCGCCAGAACUACAGAAAUGUAGUUGACGAGGAGGAGGUUUAUCGAAUUUUCGUCGGAUGCAUCCAAA	< 1e-05 s⁻¹	< 1e-05 s⁻¹	< 1e-05 s⁻¹	< 1e-05 s⁻¹	
AUAAAAGCGCCAGAACUACAGAAAUGUAGUUUACGAGGAGGAGGUUUUUCGAAUUUUCGGCGGAUGCCUCCAAA	< 1e-05 s⁻¹		< 1e-05 s⁻¹		< 1e-05 s⁻¹
AUAAAAGCGCCAGCACUACAGAAAUGUAGUUGACGAGGAGAAGGUUUAUGGAAUUUUCUGCGGAUGCCUCCAAA	< 1e-05 s⁻¹				
AUAAAAGCGCCAGAACUACAGAAAUGUAGUUGACGAGGAGGAGGUUUCUCGAAUUUUCGGUGGAUGGCUCCAAA	< 1e-05 s⁻¹	< 1e-05 s⁻¹	< 1e-05 s⁻¹		
AUAAAAUCGCCAGAACUACAGAAAUGUAGUUGACGAGUAGGAGGUUUAUCGAAUUUUCGGCGGAUGCCUCAAAA	< 1e-05 s⁻¹	< 1e-05 s⁻¹			
AUAAAAGCGCCAGAACUACAGAAAUGUAGUUGACGAGGAGGAGGUUUAUCGAAAUUUCGGAGGAUUCCUCCAAA	< 1e-05 s⁻¹				
AUAAAAGCGCCAGAACUACAGAAAUGUAGGUGACGAGGAGGAGGUUUAUCCAAUUUUCGGCGGAUGCCUCCAAA	< 1e-05 s⁻¹				
AUAAAAGCGCCAGAACUACAGAAAUGUAGUUUACGAGCAGGAGGUUUAUCGAAUUUUCGGCGGAUGCCUCCAAA	< 1e-05 s⁻¹				
AUAAAAGCGCCAGAUCUACAGAAAUGUAGUUGACUAGGAGGAGGUUUAUCGAAUUUUCGGCGGAUGCCUCCAAA	< 1e-05 s⁻¹	< 1e-05 s⁻¹	< 1e-05 s⁻¹	< 1e-05 s⁻¹	< 1e-05 s⁻¹
AUAAAAGCGCCAGAACUACAGAAAUGUAGUUGACGUGGAGGAGGUUUAUCGAAUUUUCUGCGGAUGCCUCCAAA	< 1e-05 s⁻¹	< 1e-05 s⁻¹	< 1e-05 s⁻¹		
AUAAAAGCGCCAGAACUACAGAAAUGUAGUUGCCGCGGAGGAGGUUUAUCGAAUUUUCGGCGGAUGCCUCCAAA	< 1e-05 s⁻¹			< 1e-05 s⁻¹	
AUAAAAGCGCCAGAACUACAGAAAUGUAGUUGACGAGGAGGAGGUUUAUCGAACGUUCGGCGGAUGCCUCCAAA	0.00056 ± 0.00017 s⁻¹	0.0366 ± 0.018 s⁻¹	0.00482 ± 0.0012 s⁻¹	0.00712 ± 0.0021 s⁻¹	0.000955 ± 0.00031 s⁻¹
AUAAAAGCGCCAGAACUACAGAAAUGUAGAUGACGAGGUGGAGGUUUAUCGAAUUUUCGGCGGAUGGGUCCAAA	0.000113 ± 2.1e-05 s⁻¹	8.62e-05 ± 1.7e-05 s⁻¹			
AUAAAAGCGCCCGAACUACAGAAAUGUAGUUGACGAGGAGGAGGUUUAUCGAAUUUUCGGCGGAUGCCUCAAAA	6.84e-05 ± 9.7e-06 s⁻¹	0.00229 ± 0.00033 s⁻¹	0.000423 ± 6.6e-05 s⁻¹	0.00201 ± 0.0003 s⁻¹	
AUAAAAGCGCCAGAACUACAGAAAUGUAGUUUACGUGGAGAAGGUUUAUCGAAUUUUCGGCGGAUGCCUCCAAA	< 1e-05 s⁻¹		< 1e-05 s⁻¹		
AUAAAAGCACCAGAACUACAGAAAUGUACUUCACGAGGAGGAGGCUUAUCGACUUUUCGGCGGAUGCCUCCAAA	< 1e-05 s⁻¹				
AUAAAGGCGCCAGAACUACAGAAAUGUAGUUGACGAGGAGGAGGUAUAUCGAAUUUUCGGCGGAUGCCUCCAAA	< 1e-05 s⁻¹				< 1e-05 s⁻¹
AUAAACGCGCCAGAACUACAGAAAUGUAGUUCACGAGGAGGAGGUUUAUCGAAUUUUGGGCGGAUGCCUCCAAA	< 1e-05 s⁻¹		< 1e-05 s⁻¹	< 1e-05 s⁻¹	
AUAAAAACGCCAGAACUACAUAAAUGUAGUUGGCGAGGAGGAGGUUUAUCGAAUUUUCGGCGGAUGUCGCCAAA	8.76e-05 ± 2.2e-05 s⁻¹	0.000115 ± 1.8e-05 s⁻¹			
AUAAAAGCUCCAGAACUACAGAAAUGUAGUUGACGCGCAGGAGGUUUAUCGAAUUUUCGGCGGAUGCCUCCAAA	< 1e-05 s⁻¹	< 1e-05 s⁻¹			
AUAAAAGCGCCAGAACUACAGAAAUGUAGUUAACGAGGAGGAGGUUUAUGGAAUUGUCGGCGGAUGCCUUCAAA	0.000356 ± 7.7e-05 s⁻¹	0.00032 ± 7.2e-05 s⁻¹			
AUAAAAGCGCCACAACUACAGAAAUGUAGUUGACGAGGAGGAGGCAUAUCGAAUUUUCGGCGGAUGCCUCCAAA	< 1e-05 s⁻¹	< 1e-05 s⁻¹	< 1e-05 s⁻¹		< 1e-05 s⁻¹
AUAAAAGCGCCAGAACUACAGAAAUGUAGUUGACGAGGAGGAGGUUUGUCCAAUUUUCGGCGGAUGCCUCCAAA	< 1e-05 s⁻¹	< 1e-05 s⁻¹		< 1e-05 s⁻¹	< 1e-05 s⁻¹
